Experimental data: article PMC10324392, “Enabling Peptide Ligation at Aromatic Junction Mimics via Native Chemical Ligation and Palladium-Mediated S-Arylation”

Tests used:
[1] = biological target: Max DNA-binding domain (synthetic, S-arylated) (UniProt P61244, F43C, then Cys43 S-arylated with Pd-1 to a Phe mimic); experiment: BLI; EMSA: 10 mM MES, 150 mM KCl, 1 mM MgCl2, 10% glycerol, room temperature 1 h, 10% TBE gel, pH not given; BLI: 1x PBS, 0.1% BSA, 0.02% Tween-20, streptavidin sensors, temperature not given; settings: chain copies: 2; (22 bp, only one strand printed)
[2] = biological target: Max DNA-binding domain (synthetic, S-arylated);Myc DNA-binding domain (synthetic, S-arylated) (;, UniProt P61244;P01106 ;, F43C, then Cys43 S-arylated with Pd-1 to a Phe mimic|Y402C, then Cys402 …); experiment: EMSA; equimolar Myc and Max; 1 uM DNA; 0, 4, 8 uM protein; EMSA: 10 mM MES, 150 mM KCl, 1 mM MgCl2, 10% glycerol, room temperature 1 h, 10% TBE gel, pH not given; BLI: 1x PBS, 0.1% BSA, 0.02% Tween-20, streptavidin sensors, temperature not given; settings: tags: ;; copies: 1;1; (22 bp, only one strand printed)
Max DNA-binding domain (synthetic, S-arylated);Myc DNA-binding domain (synthetic, S-arylated), sequence (P61244 22-102, stated change not applied, chain 1 of 2): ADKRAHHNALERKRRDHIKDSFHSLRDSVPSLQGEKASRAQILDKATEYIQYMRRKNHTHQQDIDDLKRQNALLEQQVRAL
Max DNA-binding domain (synthetic, S-arylated);Myc DNA-binding domain (synthetic, S-arylated), sequence (P01106 369-449, stated change not applied, chain 2 of 2): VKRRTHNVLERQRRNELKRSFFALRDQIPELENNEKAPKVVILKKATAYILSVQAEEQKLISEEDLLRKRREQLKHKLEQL

Max DNA-binding domain (synthetic, S-arylated), sequence (P61244 22-102 F43C): as the sequence (P61244 22-102, stated change not applied, chain 1 of 2) above, with F22C counted along it

B1: biotinylated E-box DNA probe (BLI) (dsDNA)
DNA 1: CCGGCTGACACGTGGTATTAAT
DNA 2: ATTAATACCACGTGTCAGCCGG
Kd [1]: 14.8 ± 0.2 nM

B2: E-box DNA probe (22 bp) (dsDNA)
DNA 1: CCGGCTGACACGTGGTATTAAT
DNA 2: ATTAATACCACGTGTCAGCCGG
binding result [2]: binds
